# Measurements as given in article PMC4548243, “Nuclear Localization of the DNA Repair Scaffold XRCC1: Uncovering the Functional Role of a Bipartite NLS” (Scientific Reports, 2015).
# No end group written: not given here. *: point of attachment. FITC = O=C1OC2(c3ccc(O)cc3Oc3cc(O)ccc32)c2ccc(NC(=S)*)cc21
# Columns and labels:
# Conditions in all cases: both partners purified
# [1] = molecular target: T1, murine Importin α with the Importin β binding domain (IBB) deleted, Impα(70–529) (murine, UniProt P52293 70-529); experiment: fluorescence polarisation; competition: serial dilutions of unlabeled peptide into 150 nM Impα(70–529) and 100 nM FITC-labeled FL-NLS peptide in FP buffer; fit to a competitive binding equation; apparent
# [2] = molecular target: Impα(70–529)(W184R/W231R) (murine, UniProt P52293 70-529, W184R | W231R); experiment: fluorescence polarisation; direct titration: serial dilutions of Impα into 100 nM FITC-labeled peptide; FP buffer (20 mM Tris pH 7.7, 125 mM NaCl, 1 mM EDTA, 2 mM TCEP, 5% sucrose, 10 mM NaN3); room temperature (legend: 25 °C); apparent dissociation constants, single-site fit
# [3] = molecular target: T1, murine Importin α with the Importin β …; experiment: as above
Kd [1] [nM],Kd [2] [nM],Kd [3] [nM],Binder
604,,,SPKGKRKLDLNQEEKKEPEKPPAQLEPEVPKRPKLP (human XRCC1 residues 241-276 with four glutamate substitutions that mimic phosphorylation; also called NLS(T257E/S259E/S266E/S268E)) [NLS-E4: XRCC1(241–276)/(T257E/S259E/S266E/S268E) quadruple variant]
,7400,108,"{FITC}-SPKGKRKLDLNQEEKKTPSKPPAQLSPSVPKRPKLP (human XRCC1 residues 241-276, the bipartite NLS; also called Full XRCC1 NLS ligand; FITC-labeled bipartite XRCC1 NLS; source: synthetic peptide, bought: Genscript) [FL-NLS: FITC-XRCC1 (241–276)]"
,690000,2100,"SVPKRPKLPGK(FITC) (added G-Lys that carries the FITC label; also called major motif ligand; major motif peptide; source: synthetic peptide, bought: Genscript) [M2: XRCC1 (268-276)-G-Lys-FITC]"
